B1: EHEE_rd4_0726 (parent)
chain: DIEITTNGEEDAKRVIKELQKRNLEYHIEVHGNQWVIKVR

Variants of: B1
Experiment: folding stability dG (cDNA display proteolysis); higher = more stable
Settings: PBS, room temperature

Variant	folding stability dG [kcal/mol]
DIEITTNGEEDAKRVIKELQKFNLEYHIEVHGNQWVIKVR	2.39
DIEITTNGEEDAKRVIKELQKGNLEYHIEVHGNQWVIKVR	1.45
DIEITTNGEEDAKRVIKELQKYNLEYHIEVHGNQWVIKVR	2.62
DIEITTNGEEDAKRVIKELQKHNLEYHIEVHGNQWVIKVR	2.33
DIEITTNGEEDAKRVIKELQKANLEYHIEVHGNQWVIKVR	2.25
DIEITTNGEEDAKRVIKELQKMNLEYHIEVHGNQWVIKVR	2.66
DIEITTNGEEDAKRVIKELQKLNLEYHIEVHGNQWVIKVR	2.88
DIEITTNGEEDAKRVIKELQKQNLEYHIEVHGNQWVIKVR	2.45
DIEITTNGEEDAKRVIKELQKCNLEYHIEVHGNQWVIKVR	2.62
DIEITTNGEEDAKRVIKELQKVNLEYHIEVHGNQWVIKVR	1.45
DIEITTNGEEDAKRVIKELQKWNLEYHIEVHGNQWVIKVR	2.65
DIEITTNGEEDAKRVIKELQKSNLEYHIEVHGNQWVIKVR	1.76
DIEITTNGEEDAKRVIKELQKPNLEYHIEVHGNQWVIKVR	0.049
DIEITTNGEEDAKRVIKELQKKNLEYHIEVHGNQWVIKVR	2.17
DIEITTNGEEDAKRVIKELQKDNLEYHIEVHGNQWVIKVR	1.33
DIEITTNGEEDAKRVIKELQKNNLEYHIEVHGNQWVIKVR	1.97
DIEITTNGEEDAKRVIKELQKINLEYHIEVHGNQWVIKVR	1.54
DIEITTNGEEDAKRVIKELQKTNLEYHIEVHGNQWVIKVR	1.51
DIEITTNGEEDAKRVIKELQKENLEYHIEVHGNQWVIKVR	1.49
DIEITTNGEEDAKRVIKEFQKRNLEYHIEVHGNQWVIKVR	1.38
DIEITTNGEEDAKRVIKEAQKRNLEYHIEVHGNQWVIKVR	0.721
DIEITTNGEEDAKRVIKEKQKRNLEYHIEVHGNQWVIKVR	-0.438
DIEITTNGEEDAKRVIKEWQKRNLEYHIEVHGNQWVIKVR	0.45
DIEITTNGEEDAKRVIKEVQKRNLEYHIEVHGNQWVIKVR	0.98
DIEITTNGEEDAKRVIKETQKRNLEYHIEVHGNQWVIKVR	-0.334

Variant	folding stability dG [kcal/mol]
DIEITTNGEEDAKRVIKEHQKRNLEYHIEVHGNQWVIKVR	-0.603
DIEITTNGEEDAKRVIKEYQKRNLEYHIEVHGNQWVIKVR	0.81
DIEITTNGEEDAKRVIKEMQKRNLEYHIEVHGNQWVIKVR	1.32
DIEITTNGEEDAKRVIKEIQKRNLEYHIEVHGNQWVIKVR	1.56
DIEITTNGEEDAKRVIKECQKRNLEYHIEVHGNQWVIKVR	1.59
DIEITTNGEEDAKRVIKELQKRELEYHIEVHGNQWVIKVR	1.66
DIEITTNGEEDAKRVIKELQKRLLEYHIEVHGNQWVIKVR	1.77
DIEITTNGEEDAKRVIKELQKRRLEYHIEVHGNQWVIKVR	2.43
DIEITTNGEEDAKRVIKELQKRMLEYHIEVHGNQWVIKVR	2.13
DIEITTNGEEDAKRVIKELQKRHLEYHIEVHGNQWVIKVR	2.4
DIEITTNGEEDAKRVIKELQKRGLEYHIEVHGNQWVIKVR	3.26
DIEITTNGEEDAKRVIKELQKRCLEYHIEVHGNQWVIKVR	1.79
DIEITTNGEEDAKRVIKELQKRFLEYHIEVHGNQWVIKVR	1.92
DIEITTNGEEDAKRVIKELQKRALEYHIEVHGNQWVIKVR	2.03
DIEITTNGEEDAKRVIKELQKRILEYHIEVHGNQWVIKVR	0.939
DIEITTNGEEDAKRVIKELQKRKLEYHIEVHGNQWVIKVR	2.42
DIEITTNGEEDAKRVIKELQKRPLEYHIEVHGNQWVIKVR	0.565
DIEITTNGEEDAKRVIKELQKRSLEYHIEVHGNQWVIKVR	1.95
DIEITTNGEEDAKRVIKELQKRQLEYHIEVHGNQWVIKVR	2.18
DIEITTNGEEDAKRVIKELQKRDLEYHIEVHGNQWVIKVR	1.72
DIEITTNGEEDAKRVIKYLQKRNLEYHIEVHGNQWVIKVR	2.87
DIEITTNGEEDAKRVIKTLQKRNLEYHIEVHGNQWVIKVR	1.95
DIEITTNGEEDAKRVIKALQKRNLEYHIEVHGNQWVIKVR	2.43
DIEITTNGEEDAKRVIKGLQKRNLEYHIEVHGNQWVIKVR	1.69
DIEITTNGEEDAKRVIKNLQKRNLEYHIEVHGNQWVIKVR	1.86

Variant	folding stability dG [kcal/mol]
DIEITTNGEEDAKRVIKILQKRNLEYHIEVHGNQWVIKVR	2.68
DIEITTNGEEDAKRVIKLLQKRNLEYHIEVHGNQWVIKVR	2.65
DIEITTNGEEDAKRVIKDLQKRNLEYHIEVHGNQWVIKVR	1.84
DIEITTNGEEDAKRVIKKLQKRNLEYHIEVHGNQWVIKVR	1.81
DIEITTNGEEDAKRVIKRLQKRNLEYHIEVHGNQWVIKVR	2.01
DIEITTNGEEDAKRVIKQLQKRNLEYHIEVHGNQWVIKVR	2.19
DIEITTNGEEDAKRVIKFLQKRNLEYHIEVHGNQWVIKVR	2.73
DIEITTNGEEDAKRVIKMLQKRNLEYHIEVHGNQWVIKVR	2.86
DIEITTNGEEDAKRVIKPLQKRNLEYHIEVHGNQWVIKVR	-0.054
DIEITTNGEEDAKRVIKWLQKRNLEYHIEVHGNQWVIKVR	3.42
DIEITTNGEEDAKRVIKHLQKRNLEYHIEVHGNQWVIKVR	2.02
DIEITTNGEEDAKRVIKSLQKRNLEYHIEVHGNQWVIKVR	2.04
DIEITTNGEEDAKRVIKVLQKRNLEYHIEVHGNQWVIKVR	2.32
DIEITTNGEEDAKRVIKCLQKRNLEYHIEVHGNQWVIKVR	3.47
DIEITTNGEEDAKRVIKELGKRNLEYHIEVHGNQWVIKVR	1.48
DIEITTNGEEDAKRVIKELWKRNLEYHIEVHGNQWVIKVR	1.79
DIEITTNGEEDAKRVIKELTKRNLEYHIEVHGNQWVIKVR	2.17
DIEITTNGEEDAKRVIKELRKRNLEYHIEVHGNQWVIKVR	2.56
DIEITTNGEEDAKRVIKELHKRNLEYHIEVHGNQWVIKVR	1.85
DIEITTNGEEDAKRVIKELSKRNLEYHIEVHGNQWVIKVR	1.9
DIEITTNGEEDAKRVIKELVKRNLEYHIEVHGNQWVIKVR	2.4
DIEITTNGEEDAKRVIKELLKRNLEYHIEVHGNQWVIKVR	2.39
DIEITTNGEEDAKRVIKELFKRNLEYHIEVHGNQWVIKVR	1.68
DIEITTNGEEDAKRVIKELEKRNLEYHIEVHGNQWVIKVR	2.68
DIEITTNGEEDAKRVIKELDKRNLEYHIEVHGNQWVIKVR	2.29

Variant	folding stability dG [kcal/mol]
DIEITTNGEEDAKRVIKELAKRNLEYHIEVHGNQWVIKVR	2.11
DIEITTNGEEDAKRVIKELCKRNLEYHIEVHGNQWVIKVR	1.98
DIEITTNGEEDAKRVIKELIKRNLEYHIEVHGNQWVIKVR	2.77
DIEITTNGEEDAKRVIKELMKRNLEYHIEVHGNQWVIKVR	2.4
DIEITTNGEEDAKRVIKELNKRNLEYHIEVHGNQWVIKVR	2.22
DIEITTNGEEDAKRVIKELPKRNLEYHIEVHGNQWVIKVR	-0.448
DIEITTNGEEDAKRVIKELYKRNLEYHIEVHGNQWVIKVR	1.64
DIEITTNGEEDAKRVIKELKKRNLEYHIEVHGNQWVIKVR	2.49
DIEITTNGEEDAKRVIKELQPRNLEYHIEVHGNQWVIKVR	0.042
DIEITTNGEEDAKRVIKELQFRNLEYHIEVHGNQWVIKVR	2.25
DIEITTNGEEDAKRVIKELQLRNLEYHIEVHGNQWVIKVR	2.65
DIEITTNGEEDAKRVIKELQHRNLEYHIEVHGNQWVIKVR	2.02
DIEITTNGEEDAKRVIKELQTRNLEYHIEVHGNQWVIKVR	1.91
DIEITTNGEEDAKRVIKELQVRNLEYHIEVHGNQWVIKVR	1.91
DIEITTNGEEDAKRVIKELQRRNLEYHIEVHGNQWVIKVR	2.75
DIEITTNGEEDAKRVIKELQYRNLEYHIEVHGNQWVIKVR	2.08
DIEITTNGEEDAKRVIKELQGRNLEYHIEVHGNQWVIKVR	1.86
DIEITTNGEEDAKRVIKELQDRNLEYHIEVHGNQWVIKVR	2.3
DIEITTNGEEDAKRVIKELQWRNLEYHIEVHGNQWVIKVR	2.04
DIEITTNGEEDAKRVIKELQIRNLEYHIEVHGNQWVIKVR	2.19
DIEITTNGEEDAKRVIKELQARNLEYHIEVHGNQWVIKVR	2.54
DIEITTNGEEDAKRVIKELQQRNLEYHIEVHGNQWVIKVR	2.23
DIEITTNGEEDAKRVIKELQMRNLEYHIEVHGNQWVIKVR	2.51
DIEITTNGEEDAKRVIKELQERNLEYHIEVHGNQWVIKVR	2.44
DIEITTNGEEDAKRVIKELQNRNLEYHIEVHGNQWVIKVR	2.21

Variant	folding stability dG [kcal/mol]
DIEITTNGEEDAKRVIKELQSRNLEYHIEVHGNQWVIKVR	2.3
DIEITTNGEEDAKRVYKELQKRNLEYHIEVHGNQWVIKVR	0.637
DIEITTNGEEDAKRVSKELQKRNLEYHIEVHGNQWVIKVR	0.705
DIEITTNGEEDAKRVTKELQKRNLEYHIEVHGNQWVIKVR	1.25
DIEITTNGEEDAKRVRKELQKRNLEYHIEVHGNQWVIKVR	0.31
DIEITTNGEEDAKRVWKELQKRNLEYHIEVHGNQWVIKVR	0.844
DIEITTNGEEDAKRVVKELQKRNLEYHIEVHGNQWVIKVR	1.94
DIEITTNGEEDAKRVIEELQKRNLEYHIEVHGNQWVIKVR	2.49
DIEITTNGEEDAKRVISELQKRNLEYHIEVHGNQWVIKVR	2.31
DIEITTNGEEDAKRVIRELQKRNLEYHIEVHGNQWVIKVR	2.7
DIEITTNGEEDAKRVILELQKRNLEYHIEVHGNQWVIKVR	2.74
DIEITTNGEEDAKRVIMELQKRNLEYHIEVHGNQWVIKVR	2.64
DIEITTNGEEDAKRVIWELQKRNLEYHIEVHGNQWVIKVR	2.36
DIEITTNGEEDAKRVIAELQKRNLEYHIEVHGNQWVIKVR	2.74
DIEITTNGEEDAKRVIHELQKRNLEYHIEVHGNQWVIKVR	2.26
DIEITTNGEEDAKRVIVELQKRNLEYHIEVHGNQWVIKVR	2.29
DIEITTNGEEDAKRVITELQKRNLEYHIEVHGNQWVIKVR	2.15
DIEITTNGEEDAKRVIPELQKRNLEYHIEVHGNQWVIKVR	0.05
DIEITTNGEEDAKRVIQELQKRNLEYHIEVHGNQWVIKVR	2.46
DIEITTNGEEDAKRVIDELQKRNLEYHIEVHGNQWVIKVR	2.06
DIEITTNGEEDAKRVIFELQKRNLEYHIEVHGNQWVIKVR	2.5
DIEITTNGEEDAKRVIIELQKRNLEYHIEVHGNQWVIKVR	2.46
DIEITTNGEEDAKRVIGELQKRNLEYHIEVHGNQWVIKVR	1.97
DIEITTNGEEDAKRVINELQKRNLEYHIEVHGNQWVIKVR	2.05
DIEITTNGEEDAKRVIYELQKRNLEYHIEVHGNQWVIKVR	2.43
